Experimental data as given in patent US20230348603A1 (VERSEAU THERAPEUTICS, published 2023).
Substitutions are numbered along the chain they refer to. In names and notes the source's numbering stands. Each block holds one binder with its values, some of them ahead of it.

What was measured:
[1] = target: T1, Human VSIG4-L-Fc (human); experiment: BLI cross-blocking on hVSIG4-L-Fc, competitor 14C05 first
T1 construct: also called hVSIG4-L-Fc; hVSIG4-L

[2] = target: T1, Human VSIG4-L-Fc; experiment: BLI cross-blocking on hVSIG4-L-Fc, competitor 12A12 first
[3] = target: T2, Human VSIG4-L-His (human, UniProt Q9Y279 20-283); experiment: BLI, IgG on AHC sensor, antigen 100 nM
T2 construct: long isoform ECD with His tag; also called hVSIG4-L
T2 sequence: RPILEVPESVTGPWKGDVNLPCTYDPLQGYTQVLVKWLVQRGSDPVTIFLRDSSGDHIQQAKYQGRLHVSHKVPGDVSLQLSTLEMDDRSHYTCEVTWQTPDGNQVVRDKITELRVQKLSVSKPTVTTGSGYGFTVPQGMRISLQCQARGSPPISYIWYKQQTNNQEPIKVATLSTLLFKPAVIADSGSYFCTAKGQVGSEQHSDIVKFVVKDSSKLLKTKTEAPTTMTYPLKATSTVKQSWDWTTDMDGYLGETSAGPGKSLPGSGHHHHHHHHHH

[4] = target: T3, Cynomolgus Monkey VSIG4-L-His (cynomolgus monkey); experiment: BLI, IgG on AHC sensor, antigen 100 nM
T3 construct: ECD with His tag; also called cyVSIG4-L; cyno VSIG4-L-His
T3 chain: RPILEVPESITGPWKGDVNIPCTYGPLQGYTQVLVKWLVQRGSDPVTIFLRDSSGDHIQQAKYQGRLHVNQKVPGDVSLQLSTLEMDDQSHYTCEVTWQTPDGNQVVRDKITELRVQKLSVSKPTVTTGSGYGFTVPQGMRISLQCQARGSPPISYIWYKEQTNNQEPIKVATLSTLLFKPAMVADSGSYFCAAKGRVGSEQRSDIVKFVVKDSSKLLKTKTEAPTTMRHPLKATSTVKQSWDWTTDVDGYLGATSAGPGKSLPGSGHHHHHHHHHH

- KD relative to parental chimera [3]: 1 fold
- KD relative to parental chimera [4]: 1.1 fold
B3: h14D12.G humanized IgG4 (S228P) kappa (antibody)
heavy: not shown
light: DIQMTQSPSSLSASVGDRVTITCRASQSVDYDGDSYMNWYQQKPGKAPKLLIYAASNLESGVPSRFSGSGSGTDFTLTISSLQPEDFATYYCQQSNEDPRTFGGGTKLEIKRTVAAPSVFIFPPSDEQLKSGTASVVCLLNNFYPREAKVQWKVDNALQSGNSQESVTEQDSKDSTYSLSSTLTLSKADYEKHKVYACEVTHQGLSSPVTKSFNRGEC

- KD relative to parental chimera [3]: 0.9 fold
- KD relative to parental chimera [4]: 0.9 fold
B4: h14D12.E humanized IgG4 (S228P) kappa (antibody, V domains shown)
VH: QIQLVQSGSELKKPGASVKVSCKASGYTFTNYGMNWVRQAPGQGLEWMGLINTYTGEPTYADGFTGRFVFSLDTSVSTAYLQISSLKAEDTAVYYCARERIYGYLHYFDYWGQGTTVTVSS
VL: DVQMTQSPSSLSASVGDRVTITCRASQSVDYDGDSYMNWYQQKPGKAPKLLIYAASNLESGVPSRFSGSGSGTDFTLTISSLQPEDFATYYCQQSNEDPRTFGGGTKLEIKR

- KD relative to parental chimera [3]: 1.7 fold
- KD relative to parental chimera [4]: 1.1 fold
B10: h16E10.C humanized IgG4 (S228P) kappa (antibody, V domains shown)
VH: QVQLVQSGAEVKKPGASVKVSCKASGYTFTNYWLGWVRQAPGQGLEWMGDIYPGGGYTNYNEKFQGRVTMTADTSTSTAYMELSSLRSEDTAVYYCAKFYYYGSSYYFDSWGQGTTVTVSS
VL: DIVMTQSPDSLAVSLGERATINCKSSQSLLNSGNQENYLAWYQQKPGQPPKLLIYGASTRESGVPDRFSGSGSGTDFTLTISSLQAEDVAVYYCQNDHSYPLTFGGGTKLEIKR

- KD relative to parental chimera [3]: 0.8 fold
- KD relative to parental chimera [4]: 1 fold
B13: h14D12.F humanized IgG4 (S228P) kappa (antibody, V domains shown)
VH: QIQLVQSGAEVKKPGASVKVSCKASGYTFTNYGMNWVRQAPGQGLEWMGLINTYTGEPTYADKFQGRVTMTLDTSTSTAYMELSSLRSEDTAVYYCARERIYGYLHYFDYWGQGTTVTVSS
VL: B4 VL

- KD relative to parental chimera [3]: 1.1 fold
- KD relative to parental chimera [4]: 1.2 fold
B14: h14D12.H humanized IgG4 (S228P) kappa (antibody, V domains shown)
VH: B13 VH with M70F, T76A, Y95F
VL: B4 VL with V2I

- KD relative to parental chimera [3]: 0.8 fold
- KD relative to parental chimera [4]: 1.3 fold
B16: h16E10.E humanized IgG4 (S228P) kappa (antibody)
heavy: not shown
light: DIVLTQSPLSLPVTPGEPASISCRSSQSLLNSGNQENYLAWYLQKPGQSPQLLIYGASTRESGVPDRFSGSGSGTDFTLKISRVEAEDVGVYYCQNDHSYPLTFGGGTKLEIKRTVAAPSVFIFPPSDEQLKSGTASVVCLLNNFYPREAKVQWKVDNALQSGNSQESVTEQDSKDSTYSLSSTLTLSKADYEKHKVYACEVTHQGLSSPVTKSFNRGEC

- KD relative to parental chimera [3]: 0.9 fold
- KD relative to parental chimera [4]: 0.4 fold
B17: h16E10.G humanized IgG4 (S228P) kappa (antibody)
heavy: not shown
light: B16 light with L4M

- KD relative to parental chimera [3]: 0.7 fold
- KD relative to parental chimera [4]: 1 fold
B18: h16E10.F humanized IgG4 (S228P) kappa (antibody)
heavy: not shown
light: B16 light with L4M

More lines, now with the values behind:

B1: 5D2.C8 mouse/human chimeric IgG4 (S228P) kappa (antibody, V domains shown)
VH: EVKLVESGGGLVKPGGSLKLSCAVSGFTFSNSAMSWVRQTPAKRLEWVAYISISGDNTYYPDSVKGRFTISRDNAKNTLYLQMSSLRSEDTAMYYCARRGYDYDGFTHWGQGTLVTVSA
VL: DILLTQSPAILSVSPGERVSFSCRASQNIGTSIHWYQQRTNGSPRLLIKYASQSISGIPSRFSGSGSGTDFTLSINSVESEDIADYYCQQSYSWPLTFGTGTQLELKR
- binding signal (nm shift) [1]: 0.12 nm
- binding signal (nm shift) [2]: 0.07 nm

B2: h14D12.D humanized IgG4 (S228P) kappa (antibody)
heavy: not shown
light: B3 light with I2V
- KD relative to parental chimera [3]: 1 fold
- KD relative to parental chimera [4]: 1 fold

B5: 13E11.A4 mouse/human chimeric IgG4 (S228P) kappa (antibody)
heavy: not shown
light: DIVMTQSHKFMSTSVGDNVSITCKASQYVSNTVAWYQQKPGQSPKLLIYSASYRNTGVPDRFTGSGSGTNFTFTISNMQAEDLAFYYCQQHYTSPLTFGAGTKLELKRTVAAPSVFIFPPSDEQLKSGTASVVCLLNNFYPREAKVQWKVDNALQSGNSQESVTEQDSKDSTYSLSSTLTLSKADYEKHKVYACEVTHQGLSSPVTKSFNRGEC
- binding signal (nm shift) [1]: 0.24 nm
- binding signal (nm shift) [2]: 0.07 nm

B6: A1 anti-VSIG4 antibody, human IgG4 (S228P) kappa (antibody, V domains shown)
VH: QVTLKESGPTLVKPTQTLTLTCTFSGISLTTSGMGVGWIRQPPGKALEWLADIFWDDNKYYNPSLKSRLTITKDTSKNQVVLTMTNMDPVDTATYYCVRVYYKNDGYFDVWGKGTTVTVSS
VL: DIVLTQSPLSLPVTLGQPASISCRASKSVTTSGYSFMHWYQQRPGQSPRLLIYLASNLEPGVPDRFSGSGSGTDFTLKISRVEAEDVGVYYCQQSGELPYTFGQGTKLEIKR
notes: variable regions from U.S. Pat. Publ
- binding signal (nm shift) [1]: 0.55 nm
- binding signal (nm shift) [2]: 0.57 nm

B7: 14F8.H6 mouse/human chimeric IgG4 (S228P) kappa (antibody, V domains shown)
VH: EVHLVESGGALVKPGGSLKLSCTASGFTFSNSVMSWIRQTPEKRLEWVATIGSGGTYIYYPDSVKGRFTISRDNSKNTLFLQMTSLRSEDTALYYCARHIYGYDVVDYWGQGTTLTVST
VL: DIVMTQSHRFMSTSVGDRVSITCKASHDVSNVVAWYQQKPGQSPELLIYSASYRYTGVPARFTGSGSGTDFTFTISSVQAEDLAVYFCQQHFTTPLTFGAGTSLEVRR
- binding signal (nm shift) [1]: 0.15 nm
- binding signal (nm shift) [2]: 0.1 nm

B8: EU103.2 anti-VSIG4 antibody, human IgG4 (S228P) kappa (antibody, V domains shown)
VH: QVQLQESGPGLVKPSQTLSLTCSFSGISLTTSGMGVGWIRQPPGKGLEWLADIFWDDNKYYNPSLKSRVTISVDTSKNQFSLKLSSVTAADTAVYYCVRVYYKNDGYFDVWGQGTLVTVSS
VL: EIVMTQSPATLSVSPGERATLSCRASKSVTTSGYSFMHWYQQKPGQAPRLLIYLASNLEPGIPARFSGSGSGTEFTLTISSLQSEDFAVYYCQHSRELPYTFGQGTKLEIKR
notes: as for B6
- binding signal (nm shift) [1]: 0.29 nm
- binding signal (nm shift) [2]: 0.3 nm

B9: 10E8.B6 mouse/human chimeric IgG4 (S228P) kappa (antibody, V domains shown)
VH: EVQLQQSGPELMKPGDSVKMSCKASGYTFTDYYMDWVKQSHGKSLEWIGYIYPNIDFTTYNQKFKGKATLTVDKSSNTAYMELHSLTSEDSAVYYCTRRDLPLHGSAYYFDYWGQGTTLTVSS
VL: DIVMSQSPSSLAVSAGEKVTMSCKSSQSLLNSRTRKNYLAWYQQKPGQSPKLLIYWASTRESGVPDRFTGSGSGTDFTLTISSVQAEDLAVYYCKQSYDLFTFGSGTKLEIKR
- binding signal (nm shift) [1]: 0.11 nm
- binding signal (nm shift) [2]: 0.06 nm

B11: 1C6.D6 mouse/human chimeric IgG4 (S228P) kappa (antibody, V domains shown)
VH: QVQLQQPGAEMVRPGTSVKLSCKASGYTFTSYWMHWVKQRPGQGLEWIGKIDPSHNKTHYIQKFEDKATLTVDKSSSTAYMHLNSLTSEDSAVYYCVTWDGDFLYWGQGTLVTVSA
VL: NIVLTQSPASLTVSLGQRATISCRASESVDSYGNSFMHWYQQKPGQPPKLLIYITSNLQSGVPARFSGGGSRTDFTLTIDPVEADDAATYYCQQNNEDPWTFGGGTKLEIKR
notes: also called 1C6.D6b
- binding signal (nm shift) [1]: 0.59 nm
- binding signal (nm shift) [2]: 0.08 nm

B12: 16F6.E1 mouse/human chimeric IgG4 (S228P) kappa (antibody, V domains shown)
VH: QVQLQQPGAEMVRPGASLKLSCKASGYTFTSYWMHWVKQRPGQGLEWIGKIDPSKNTTHYNQNFRDKATLTVDRSSSTAYMQLNSLTSEDSAVYFCVTWDGDFTYWGQGTLVTISA
VL: B11 VL with A9P, T12A, I54L, T55A, Q59E, G69S, Y91F, Q93H
- binding signal (nm shift) [1]: 0.56 nm
- binding signal (nm shift) [2]: 0.09 nm

B15: h16E10.D humanized IgG4 (S228P) kappa (antibody)
heavy: not shown
light: B16 light
- KD relative to parental chimera [3]: 0.6 fold
- KD relative to parental chimera [4]: 1.1 fold

B19: 1H7.C7 mouse/human chimeric IgG4 (S228P) kappa (antibody, V domains shown)
VH: EVQLVESGGGLVMPGGSRRLSCAASGFTFSDSGMYWVRQAPEKGLEWIAYISSGSDTLYYAATVKGRFTISRDNAKNTLFLQMTSLRSEDTAIYYCAKRNFYGYDVMDYWGQGTSVTVSS
VL: DIVMTQSHKFMSTSVGDRVSITCKASQDVSNVVAWYQQKPGQSPKLLIYSASYRYTGVPDRFAGSGSGTDFTFTISSVQAEDLAVYYCQQHYSTPWTFGGGTKLEIKR
- binding signal (nm shift) [1]: 0.13 nm
- binding signal (nm shift) [2]: 0.08 nm

B20: 9A10.C4 mouse/human chimeric IgG4 (S228P) kappa (antibody, V domains shown)
VH: EVQLVESGGALVQPGGSLKLSCVASGFSFSNCVMSWVRQSPEKRLEWVATIGSDGSYSYYQDNVKGRFTVSRDNAKNTLYLQMSSLGSEDTALYYCGRHIYGYDVVDYWGQGTSLTVSS
VL: B19 VL with S20T, Y36F, Y55F, T56G, A63T, S93D, W96L, G100T, K103T, I106L
- binding signal (nm shift) [1]: 0.14 nm
- binding signal (nm shift) [2]: 0.1 nm
